Laboratory results from patent US20240218030A1 (published 2024).

Biological target: human transferrin receptor-Fc tag standard (human, UniProt P02786 89-760)
Assay: ELISA

human transferrin receptor-Fc tag standard, sequence (P02786 89-760): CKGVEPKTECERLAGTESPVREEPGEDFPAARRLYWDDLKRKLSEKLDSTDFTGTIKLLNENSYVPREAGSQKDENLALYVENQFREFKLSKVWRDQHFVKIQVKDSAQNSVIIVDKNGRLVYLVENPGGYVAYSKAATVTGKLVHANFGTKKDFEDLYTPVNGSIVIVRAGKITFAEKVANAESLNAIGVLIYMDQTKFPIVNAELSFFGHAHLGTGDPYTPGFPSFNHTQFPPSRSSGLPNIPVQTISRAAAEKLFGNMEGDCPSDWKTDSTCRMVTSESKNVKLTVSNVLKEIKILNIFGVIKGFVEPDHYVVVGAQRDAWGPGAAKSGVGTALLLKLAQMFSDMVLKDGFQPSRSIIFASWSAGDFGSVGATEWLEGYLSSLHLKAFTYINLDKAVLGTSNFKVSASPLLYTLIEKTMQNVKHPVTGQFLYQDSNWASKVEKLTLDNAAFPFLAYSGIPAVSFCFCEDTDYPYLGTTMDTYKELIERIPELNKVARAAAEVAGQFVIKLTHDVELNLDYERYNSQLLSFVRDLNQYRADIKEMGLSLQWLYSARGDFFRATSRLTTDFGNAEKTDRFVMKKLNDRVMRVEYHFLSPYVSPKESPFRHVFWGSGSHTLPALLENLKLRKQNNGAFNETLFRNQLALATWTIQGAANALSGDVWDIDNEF

Kd: 182 nM
B1: huHF_Mutant1-dual (designed binder)
chain: MTTASTSQVRQNYHAASEAAINAQINLELYASYVYLSMSYYFDRDDVALKNFAKYFLHQSHEEREHAEKLMKLQNQRGGRIALADIQKPDCDDGGSYGSLYAFDIWESGLNAMECALHLEKNVNQSLLELHKLATDKNDPHLCDFIETHYLNEQVKAIKELGDHVTNLRKMGAPESGLAEYLFDKHTLGDSDNESMPSFITLASLSTWEGYFDF
